Series [1] deals with S. rosetta caveolin (Salpingoeca rosetta). Nature of the series: cryo-EM structure; single-particle cryo-EM of the complex purified in C12M detergent; C11 symmetry applied in the final refinement.
Series [2] deals with the molecule itself. The description is as above.

What is called stoichiometry N is the number of molecules, sites or subunits per partner or assembly. In the case of S. rosetta caveolin (natural protein), the stoichiometry N in series [1] amounted to 11.

B1: S. purpuratus caveolin (natural protein, Strongylocentrotus purpuratus, UniProt A0A7M7T4C2 1-159, looked up)
chain: MELIHPENGPSGTVQVPLIQGVDQSDTEDVYRLSPHVTTGFADTFKESNDIMGFSFMEKVNGAIYKYTHFAFYAVLNLLLAPFIAFSFGLSFAVMHFAVVWFVQPIMKLYYVWLRVFNLAYEPALRLVCDPIHRSIALILSGIKGQFKMNSSDVKTSQV
notes: caveolin of Strongylocentrotus purpuratus (purple sea urchin), UniProt A0A7M7T4C2, entire polypeptide (residues 1-159); residues 29-152 modelled in the cryo-EM map; Cloned between NdeI and XhoI of pET20b(+) with a reverse primer without stop codon, so the His tag is probably C-terminal (surmised); also called Strongylocentrotus purpuratus caveolin; Type I-CAV; source: E. coli BL21, purified from …
Turning to B1, in series [2], the “stoichiometry N” value amounted to 11.
